Experimental data reported in patent publication US20110229981A1.

Key:
[1] = target: CD31 solubilized from Jurkat T cell lysates and captured on PECAM 1.2-coupled CBA beads (human) (UniProt P16284); test: co-capture on PECAM 1.2 CBA beads from Jurkat lysate, anti-CD3-FITC, flow cytometry; negative control (unstimulated)
[2] = target: CD31 solubilized from Jurkat T cell lysates and captured on PECAM 1.2-coupled CBA beads (human) (UniProt P16284); test: co-capture on PECAM 1.2 CBA beads from Jurkat lysate, anti-CD3-FITC, flow cytometry; T-cell activation (CD3 crosslink)
[3] = target: CD31 solubilized from Jurkat T cell lysates and captured on PECAM 1.2-coupled CBA beads (human) (UniProt P16284); test: co-capture on PECAM 1.2 CBA beads from Jurkat lysate, anti-CD3-FITC, flow cytometry; positive pY control (Na3VO4/H2O2)
[4] = target: CD31 solubilized from Jurkat T cell lysates and captured on PECAM 1.2-coupled CBA beads (human) (UniProt P16284); test: co-capture on PECAM 1.2 CBA beads from Jurkat lysate, anti-CD3-FITC, flow cytometry; antibody CD31 treatment (CD3 + CD31 crosslink)
[5] = target: CD31 solubilized from Jurkat T cell lysates and captured on PECAM 1.2-coupled CBA beads (human) (UniProt P16284); test: co-capture on PECAM 1.2 CBA beads from Jurkat lysate, anti-CD28-PE, flow cytometry; negative control (unstimulated)
[6] = target: CD31 solubilized from Jurkat T cell lysates and captured on PECAM 1.2-coupled CBA beads (human) (UniProt P16284); test: co-capture on PECAM 1.2 CBA beads from Jurkat lysate, anti-CD28-PE, flow cytometry; T-cell activation (CD3 crosslink)
[7] = target: CD31 solubilized from Jurkat T cell lysates and captured on PECAM 1.2-coupled CBA beads (human) (UniProt P16284); test: co-capture on PECAM 1.2 CBA beads from Jurkat lysate, anti-CD28-PE, flow cytometry; positive pY control (Na3VO4/H2O2)
[8] = target: CD31 solubilized from Jurkat T cell lysates and captured on PECAM 1.2-coupled CBA beads (human) (UniProt P16284); test: co-capture on PECAM 1.2 CBA beads from Jurkat lysate, anti-CD28-PE, flow cytometry; antibody CD31 treatment (CD3 + CD31 crosslink)
[9] = target: CD31 solubilized from Jurkat T cell lysates and captured on PECAM 1.2-coupled CBA beads (human) (UniProt P16284); test: co-capture on PECAM 1.2 CBA beads from Jurkat lysate, anti-CD28-PE, flow cytometry; peptide CD31 treatment (CD3 crosslink + CD31 peptide)
[10] = target: CD31 solubilized from Jurkat T cell lysates and captured on PECAM 1.2-coupled CBA beads (human) (UniProt P16284); test: co-capture on PECAM 1.2 CBA beads; peptide CD31 treatment against CD3 crosslink conditions
[11] = target: CD31 solubilized from Jurkat T cell lysates and captured on PECAM 1.2-coupled CBA beads (human) (UniProt P16284); test: co-capture on PECAM 1.2 CBA beads; antibody CD31 treatment against CD3 crosslink conditions
[12] = target: CD31 solubilized from Jurkat T cell lysates and captured on PECAM 1.2-coupled CBA beads (human) (UniProt P16284); test: co-capture on PECAM 1.2 CBA beads from Jurkat lysate, anti-SHP2-PE, flow cytometry; negative control (unstimulated)
[13] = target: CD31 solubilized from Jurkat T cell lysates and captured on PECAM 1.2-coupled CBA beads (human) (UniProt P16284); test: co-capture on PECAM 1.2 CBA beads from Jurkat lysate, anti-SHP2-PE, flow cytometry; T-cell activation (CD3 crosslink)
[14] = target: CD31 solubilized from Jurkat T cell lysates and captured on PECAM 1.2-coupled CBA beads (human) (UniProt P16284); test: co-capture on PECAM 1.2 CBA beads from Jurkat lysate, anti-SHP2-PE, flow cytometry; positive pY control (Na3VO4/H2O2)
[15] = target: CD31 solubilized from Jurkat T cell lysates and captured on PECAM 1.2-coupled CBA beads (human) (UniProt P16284); test: co-capture on PECAM 1.2 CBA beads from Jurkat lysate, anti-SHP2-PE, flow cytometry; antibody CD31 treatment (CD3 + CD31 crosslink)
[16] = target: CD31 solubilized from Jurkat T cell lysates and captured on PECAM 1.2-coupled CBA beads (human) (UniProt P16284); test: co-capture on PECAM 1.2 CBA beads from Jurkat lysate, anti-SHP2-PE, flow cytometry; peptide CD31 treatment (CD3 crosslink + CD31 peptide)

Question: What does the source list for CD3 (receptor)?
Answer: MFI CD3 [1]: 197 MFI; MFI CD3 [2]: 17900 MFI; MFI CD3 [3]: 354 MFI; MFI CD3 [4]: 2420 MFI

Question: For “CD28 (from UniProt P10747 19-220) (receptor)”, which MFI CD28 [5] is on record?
Answer: 8160 MFI

Question: What about the MFI CD28 [6] of the same substance?
Answer: 25200 MFI

Question: What about the MFI CD28 [7] of the same substance?
Answer: 3930 MFI

Question: What about the MFI CD28 [8] of the same substance?
Answer: 17100 MFI

Question: What about the MFI CD28 [9] of the same substance?
Answer: 24300 MFI

Question: What does the source list for “SHP-2 (from UniProt Q06124 2-593) (enzyme)”?
Answer: increase of the amount of SHP-2 associated to CD31 [10]: 100%; increase of the amount of SHP-2 associated to CD31 [11]: 50%; MFI SHP-2 [12]: 165 MFI; MFI SHP-2 [13]: 90 MFI; MFI SHP-2 [14]: 193 MFI; MFI SHP-2 [15]: 149 MFI; MFI SHP-2 [16]: 185 MFI
